Test results from US20260008815A1, “CYCLIC PEPTIDE OR SALT THEREOF, AND USES THEREOF” (FUJIFILM Corporation, priority 2023, published 2026).
Bridge positions count the residues as written; N and C are the ends. Ends that are not written are not given here. COCH2 = acetyl group that carries the bridge

Target: T1, Recombinant Human FGFR2 alpha (IIIc) Fc Chimera Protein, CF (R&D systems, 712-FR-050) (human, UniProt P21802 22-377)
T1 construct: bought; not shown: Fc part of the chimera
Assay: ELISA on plate-bound FGFR2-Fc
In short: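 Plate-immobilized FGFR2 alpha (IIIc)-Fc (5 ng/well) incubated with peptide 3 h at room temperature, then anti-Myc antibody 2 h and chemiluminescent ELISA substrate. Signal corrected by subtracting FGFR-free wells; binding affinity scored into categories from the dose-response.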

T1 sequence (P21802 22-377, change not shown): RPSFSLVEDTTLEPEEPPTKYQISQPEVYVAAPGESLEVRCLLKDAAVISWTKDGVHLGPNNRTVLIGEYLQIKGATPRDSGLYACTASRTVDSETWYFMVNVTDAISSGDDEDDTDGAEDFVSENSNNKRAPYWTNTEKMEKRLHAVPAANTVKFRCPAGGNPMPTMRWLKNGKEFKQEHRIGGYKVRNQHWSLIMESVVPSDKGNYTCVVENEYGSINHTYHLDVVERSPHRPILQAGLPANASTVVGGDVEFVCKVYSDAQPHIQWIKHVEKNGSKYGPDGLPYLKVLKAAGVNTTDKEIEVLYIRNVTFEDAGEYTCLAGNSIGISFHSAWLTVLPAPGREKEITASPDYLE

Binder	ELISA luminescence signal at 10 nmol/L peptide, relative to SEQ ID NO: 47 (=1) [ratio]
QCPRQLYYLYLYLSK(COCH2)I (thioether 2-15) [cyclic peptide SEQ ID NO: 378]	0.1 to 0.5
YCEAQPYYFQLYRLWHRQEK(COCH2)P (thioether 2-20 (inferred)) [cyclic peptide SEQ ID NO: 420]	0.1 to 0.5
QCDQDAIQWVYDLQYYRVWHK(COCH2)V (thioether 2-21 (inferred)) [cyclic peptide SEQ ID NO: 413]	0.1 to 0.5
DCLRQQVYQYLYILFQNDIAK(COCH2)D (thioether 2-21 (inferred)) [cyclic peptide SEQ ID NO: 418]	0.1 to 0.5
YCPPQLVYLYQYLYK(COCH2)L (thioether 2-15) [cyclic peptide SEQ ID NO: 380]	0.1 to 0.5
PCDPLNLQQWYTAVYQLWHK(COCH2)R (thioether 2-20 (inferred)) [cyclic peptide SEQ ID NO: 426]	0.1 to 0.5
LCVQGNYQNPTQWYYFQLYK(COCH2)W (thioether 2-20 (inferred)) [cyclic peptide SEQ ID NO: 407]	0.5 to 0.7
DCHTREDWQIHHLYQLLYQLK(COCH2)Y (thioether 2-21 (inferred)) [cyclic peptide SEQ ID NO: 419]	0.1 to 0.5
DCIRPYDQLQLIYQYLYQLK(COCH2)K (thioether 2-20; not fully specified; printed as D-(C)-IRPYDQLQLIYQYLYQL-(K(acetyl))-K) [cyclic peptide SEQ ID NO: 404]	0.1 to 0.5
WCQESSNYLAPLQWYFFNWYK(COCH2)T (thioether 2-21 (inferred)) [cyclic peptide SEQ ID NO: 410]	≥ 0.7
WCFTEGIQSTVQLTYSYLYK(COCH2)L (thioether 2-20 (inferred)) [cyclic peptide SEQ ID NO: 423]	0.1 to 0.5
LCTQFPASQRYYFALYRLWHK(COCH2)S (thioether 2-21 (inferred)) [cyclic peptide SEQ ID NO: 416]	0.1 to 0.5
KCAPQNFINPVQWRYFQHYKN (thioether ring (C)-(K(acetyl))) [cyclic peptide SEQ ID NO: 70]	0.5 to 0.7
PCEQQNFHSVIQWHFFAQYK(COCH2)N (thioether 2-20 (inferred)) [cyclic peptide SEQ ID NO: 406]	≥ 0.7
KCQNFINPVQWRYFQHYKN (not fully specified; thioether ring (C)-(K(acetyl))) [cyclic peptide SEQ ID NO: 68]	≥ 0.7
GCGYTQLHYQHLFAWLHARK(COCH2)V (thioether 2-20 (inferred)) [cyclic peptide SEQ ID NO: 425]	0.1 to 0.5
YCNYEWDGARRQIAYYRIFLK(COCH2)L (thioether 2-21 (inferred)) [cyclic peptide SEQ ID NO: 414]	0.1 to 0.5
QCEYALQYYRFYVAQRHWVDK(COCH2)L (thioether 2-21 (inferred)) [cyclic peptide SEQ ID NO: 412]	0.1 to 0.5
YCDWVEVANARQLAYYTLYRK(COCH2)K (thioether 2-21) [cyclic peptide SEQ ID NO: 415]	0.1 to 0.5
VCQQDNYFYPQQWFFFVHYK(COCH2)H (thioether 2-20) [cyclic peptide SEQ ID NO: 400]	≥ 0.7
HCSQHQTTYYQIYAYLHAIK(COCH2)I (thioether 2-20 (inferred)) [cyclic peptide SEQ ID NO: 408]	0.1 to 0.5
TCVDKDNWYNHVQWQYFFLYK(COCH2)Q (thioether 2-21) [cyclic peptide SEQ ID NO: 411]	≥ 0.7

Binder	ELISA luminescence signal at 10 nmol/L peptide, relative to SEQ ID NO: 47 (=1) [ratio]
VCLDEQQALFHQYYRITRRK(COCH2)V (thioether 2-20 (inferred)) [cyclic peptide SEQ ID NO: 421]	0.1 to 0.5
KCPQNFINPVQWRYFQHYAKN (thioether ring (C)-(K(acetyl))) [cyclic peptide SEQ ID NO: 69]	0.1 to 0.5
NCQLYYTYLYLHTLK(COCH2)F (thioether 2-15) [cyclic peptide SEQ ID NO: 379]	0.1 to 0.5
PCEVYNYWYPTQWFFFTQFK(COCH2)K (thioether 2-20; not fully specified; printed as P-(C)-EVYNYWYPTQWFFFTQF-(K(acetyl))-K) [cyclic peptide SEQ ID NO: 402]	≥ 0.7
QCQLYYLYQYAYALK(COCH2)V (thioether 2-15) [cyclic peptide SEQ ID NO: 383]	0.1 to 0.5
QCLTQRVYLRQLAYYRLYRK(COCH2)I (thioether 2-20 (inferred)) [cyclic peptide SEQ ID NO: 405]	0.1 to 0.5
QCQLYYLYQYTIAIK(COCH2)T (thioether 2-15) [cyclic peptide SEQ ID NO: 384]	0.1 to 0.5
VCQEYYLYQYVYELK(COCH2)Y (thioether 2-15) [cyclic peptide SEQ ID NO: 381]	0.1 to 0.5
LCNNWENYFDWLQWSYYIAYK(COCH2)E (thioether 2-21 (inferred)) [cyclic peptide SEQ ID NO: 409]	≥ 0.7
ACRRANWIHPIQWFFFHVYK(COCH2)H (thioether 2-20) [cyclic peptide SEQ ID NO: 403]	0.5 to 0.7
HCLHYLYQYLYTVK(COCH2)Y (thioether 2-14) [cyclic peptide SEQ ID NO: 377]	0.1 to 0.5
QCAYYHLYQYLHQLK(COCH2)V (thioether 2-15) [cyclic peptide SEQ ID NO: 385]	0.5 to 0.7
PCDRQLYYLYQYIHK(COCH2)T (thioether 2-15) [cyclic peptide SEQ ID NO: 382]	0.1 to 0.5
RCHHNFHHARQHGFFYHYK(COCH2)R (thioether 2-19) [cyclic peptide SEQ ID NO: 388]	0.1 to 0.5
RCHHNFHHARQWGFFHHYK(COCH2)R (thioether 2-19) [cyclic peptide SEQ ID NO: 386]	0.5 to 0.7
RCHHNFHHARQHGFFWHYK(COCH2)R (thioether 2-19) [cyclic peptide SEQ ID NO: 389]	0.1 to 0.5
RCHHNFHHARQHRFFHHYK(COCH2)R (thioether 2-19) [cyclic peptide SEQ ID NO: 387]	0.1 to 0.5
YCTQEQAFRQLAYYQIFRRSK(COCH2)S (thioether 2-21 (inferred)) [cyclic peptide SEQ ID NO: 422]	0.1 to 0.5
QCQFLNYVNHVQWHYFWVFK(COCH2)S (thioether 2-20) [cyclic peptide SEQ ID NO: 401]	0.1 to 0.5
LCQIYLYLTALQQGFEDFYPK(COCH2)N (thioether 2-21 (inferred)) [cyclic peptide SEQ ID NO: 417]	0.1 to 0.5
VCTQPQQDFELIYQYLYQLAK(COCH2)Q (thioether 2-21 (inferred)) [cyclic peptide SEQ ID NO: 424]	0.1 to 0.5
